Values quoted from earlier work as cited in PMC6005205.

Target: ACKR3 (Homo sapiens) (UniProt P25106)
UniProt P25106, sequence (P25106 whole entry): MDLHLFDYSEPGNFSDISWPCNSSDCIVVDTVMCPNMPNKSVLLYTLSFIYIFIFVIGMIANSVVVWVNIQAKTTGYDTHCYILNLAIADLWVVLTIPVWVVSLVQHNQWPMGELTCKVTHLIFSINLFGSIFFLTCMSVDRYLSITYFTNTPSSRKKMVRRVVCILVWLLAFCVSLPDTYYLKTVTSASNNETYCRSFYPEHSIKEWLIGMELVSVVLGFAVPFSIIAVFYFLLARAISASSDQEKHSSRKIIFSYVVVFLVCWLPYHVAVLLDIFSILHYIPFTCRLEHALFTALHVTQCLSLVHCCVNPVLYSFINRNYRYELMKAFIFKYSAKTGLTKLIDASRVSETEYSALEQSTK

In the case of adrenomedullin (from UniProt P35318), the Kd is listed as 0.2 nM.
